The values that follow are results of earlier work, collected in article doi:10.1101/2020.02.03.932012.

Some targets named below: Glu66 (UniProt position 148, FTKKMEENAKK); Glu62 (UniProt position 144, EASAFEKKMVE); Lys62 (UniProt position 144, EASAFKKKMVE); Lys66 (UniProt position 148, FTKKMKENAKK).
Experiment in all cases: stability
Holding throughout (conditions): single buried-residue variants, ligand-free as far as stated

Regarding “Staphylococcal nuclease Delta+PHS V66E (Staphylococcus aureus; G50F;V51N;P117G;H124L;S128A;del44-49;V66E)”, the pKa with Glu66 is 8.5.
Consider “Staphylococcal nuclease Delta+PHS T62E (Staphylococcus aureus; G50F;V51N;P117G;H124L;S128A;del44-49;T62E)”, for which the pKa with Glu62 is listed as 7.7.
In the case of “Staphylococcal nuclease Delta+PHS T62K (Staphylococcus aureus; G50F;V51N;P117G;H124L;S128A;del44-49;T62K)”, the pKa with Lys62 is on record as 8.1.
Regarding “Staphylococcal nuclease Delta+PHS V66K (Staphylococcus aureus; G50F;V51N;P117G;H124L;S128A;del44-49;V66K)”, the pKa with Lys66 is recorded as 5.7.
